Earlier results as cited in patent publication US10064909B2, “Compositions and methods for chronic use of a weight-gaining compound” (priority 2015, dated 2018).
Ends that are not written are not given here.

Conditions: in vivo; cited from earlier work

Ghrelin: hormone produced predominantly in the glandular stomach; endogenous ligand of the ghrelin receptor (GHS-R) (GSSFLSPEHQRVQQRKESKKPPAKLQPR; ends and bridges not checked; UniProt Q9UBU3 24-51, looked up)
half-life in the blood: approximately ten minutes
